Six molecules from US20250243282A1 (TRUEBINDING, published 2025) can be followed below.

First the molecules themselves.
B1: 849.4F12 (antibody, V domains shown)
VH: QVQLKESGPGILQPSQTLSLTCSFSGFSLSTFGMGVGWIRQPSGKGLEWLAHIWWDDDKHYNPALKSRLTISKDTSKNQVFLRIANVDTADNATYYCARIDYGDYVGFAYWGQGTLVTVSA
VL: DILLTQSPSSMSVSLGDTVSITCHASQGINSNIGWLQQKPGKSFKGLIYHGTNLEDGVPSRFSGSGSGADYSLTISSLESEDFADYYCVQYDQFPWTFGGGTKLEIK
B2: 846T.4C9 (antibody, V domains shown)
VH: EVQLQQSGPELVKPGASVKMSCKASGYSFTNYIMHWVKQKPGQGLEWIGYINPYNDGTKYNEKFKGKATLTSDKSSSTAYMELSSLTSEDSAVYYCARLLFYYAMDYWGQGTSVTVSS
VL: B1 VL with L4M, S7T, N30S, G41R, H50Y
B3: 846.2B11 (antibody, human IgG4 S228P, kappa, V domains shown)
VH: QVQLQQSGPELVRPGALVKISCKASGYTFTSYDINWVKQRPGQGLEWIGWIYPGDGSTKYNEKFKGKATLTADKSSSTAYMQLSSLTSENSAVYFCAREAASNAMDYWGQGTSVTVSS
VL: DIVLTQSPASLGVSLGQRATISCRASKSVSTSGYSYMHWYQQKPGQPPKLLIYLASILESGVPARFSGSGSGTDFTLNIHPVEEEDAAIYYCQHSRELPLTFGAGTKLELKR
B4: 847.21B11 (antibody, V domains shown)
VH: QVQLKQSGPGLVAPSQSLSITCTVSGFSLTSYGVHWVRQPPGKGLEWLGIIWAGGSTNYNPALMSRLSISKDKSKSQVFLKMNSLKTDDTAMYYCARDRASLLRPGAMDYWGQGTSVTVSS
VL: DIVMTQSQKFMSTSVGDRVSVTCKASQNVGINVAWYQQKPGQSPKALIYSASYRYSGVPDRFTGSGSGTDFTLTISNVQSEDLAEYFCQQYNSYPYTFGGGTKLEMK
B5: 847.15F9 (antibody, V domains shown)
VH: QVQMKQSGPGLVQPSQSLSITCTVSGFSLINYGVHWVRQSPGKGLEWLGVIWSGGSTDYNAAFISRLSISKDNSKSQVFFKMNSLQADDTAIYYCARIYYYGRGYAMDYWGQGTSVTVSS
VL: QIVLSQSPAILSASPGEKVTMTCRASSSVTYMYWYQQKPGSSPQPWIYATSNLASGVPARFSGSGSGTSYSLTISRVEAEDAATYYCQQWSSNPLTFGAGTKLELK
B6: 849.4B2 (antibody, V domains shown)
VH: DGKLQESGPGLVKPSQSLSLTCSVTGYSITSGYYWNWIRQFPGNKLEWMGHISYDGRNNYNPSLKNRISITRDTSKNQFFLKLNSVTTEDTATYYCAGYDFLWYFDVWGTGTTVTVSS
VL: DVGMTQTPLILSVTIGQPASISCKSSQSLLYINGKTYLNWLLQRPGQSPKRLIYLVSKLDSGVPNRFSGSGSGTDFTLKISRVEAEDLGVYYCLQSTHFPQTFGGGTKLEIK

Residue numbers refer to the chain shown, from its start.
For % inhibition of CD62L shedding in this document: test concentration or dose not given here.
For % inhibition of IL-6 secretion in this document: test concentration or dose not given here.
For % inhibition of TNFα secretion in this document: test concentration or dose not given here.

T1 sequence (P17931 2-250 limits assumed): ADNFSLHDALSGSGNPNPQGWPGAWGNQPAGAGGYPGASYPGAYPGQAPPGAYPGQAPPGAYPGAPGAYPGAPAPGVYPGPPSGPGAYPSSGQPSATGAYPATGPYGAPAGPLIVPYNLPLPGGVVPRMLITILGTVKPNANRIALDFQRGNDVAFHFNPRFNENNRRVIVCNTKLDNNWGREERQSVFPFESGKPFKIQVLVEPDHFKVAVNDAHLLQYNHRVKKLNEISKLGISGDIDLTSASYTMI

The first experiment has as its target T1, human Gal3 protein (recombinant human Galectin-3) (human, UniProt P17931 2-250).
T1 construct: also called hGal3; hGAL3
Description: SPR (Carterra LSA), antibody immobilised on HC200M chip, hGal3 injected.
For the molecule B1, the binding result is listed as “no binding”.

Regarding B2, the binding result is “no binding”.

Turning to B3, the binding result is “no binding”.

Consider B4, for which the binding result is on record as “no binding”.

As to B5, the binding result is “no binding”.

In the case of B6, the binding result is listed as “no binding”.

Another experiment has as its target T2, Recombinant human Gal3 (rhGal3) (TrueBinding, #QC200361) (human, UniProt P17931 2-250). In words: cell-based or functional assay.
With B1, the “% inhibition of IL-6 secretion” value is 1.2% and the “% inhibition of TNFα secretion” value was -81.5%.

With B2, the “% inhibition of IL-6 secretion” value was -38.3% and the “% inhibition of TNFα secretion” value was -299%.

With B3, the “% inhibition of IL-6 secretion” value is -0.5% and the “% inhibition of TNFα secretion” value is -98%.

Turning to B4, the “% inhibition of IL-6 secretion” value stood at 27.3% and the “% inhibition of TNFα secretion” value is -136%.

For the molecule B5, the “% inhibition of IL-6 secretion” value worked out at 16.6% and the “% inhibition of TNFα secretion” value is -178%.

For B6, the “% inhibition of IL-6 secretion” value is -9.8% and the “% inhibition of TNFα secretion” value was -162%.

The target in the next experiment is T2, Recombinant human Gal3 (rhGal3) …. Description: cell-based or functional assay. This is another data set of the same source.
For B1, the “% inhibition of CD62L shedding” value came to 17.9%.

Turning to B2, the “% inhibition of CD62L shedding” value was 11.2%.

For the molecule B3, the “% inhibition of CD62L shedding” value is 8.2%.

Turning to B4, the “% inhibition of CD62L shedding” value was determined as 16.4%.

Take B5: the “% inhibition of CD62L shedding” value was determined as 8.5%.

With B6, the “% inhibition of CD62L shedding” value is 6.2%.
